B1: aBCL2: designed binding partner of BCL2 (protein)
chain: GADPKKVLDKAKDEAENRVRELKQRLEELYKEARKLDLTQEMRQELVDKARAASLQANGDIFYAILRALAEAEKLKKAGLVNSQQLDELKRRLEELAEEARRKAEKLRDEFRLKLEYG
B2: aBFL1: designed binding partner of BFL1 (protein)
chain: GADPKKVLDKAKDQAENRVRELKQKLEELYKEARKLDLTQEKRKKLEVATLGAVLAAHGDILNAIMQAKEEADKLKKAGLVNSQQLDELKRRLEELKEEALRKASDYGNEFHLKRRYG
B3: mFAP2a: mFAP2 variant, "a" for affinity (protein)
chain: SRAAQLLPGTWQATFTNEDGQTSQGQWHFQPRSPYTMDIVAQGTISDGRPIVGYGKATVKTPDTLDIDITYPSLGNIKAQGQITMDSPTQFKWDATTKGENDFHGRLTGTLQRQE
B4: mFAP10: variant from the IN2 combinatorial library (protein)
chain: SRAAQLLPGTWQATFTNEDGQTSQGQIHFQPRSPYTMDIVAQGTISDGRPIVGYGKATVKTPDTLDIDITYPSLGNIKAQGQITMDSPTQFKFDATTKGENDFHGRLTGTLQRQE
B5: mFAP2: previously reported mini-fluorescence-activating protein, initial design (protein)
chain: SRAAQLLPGTWQVTMTNEDGQTSQGQMHFQPRSPYTMDVVAQGTISDGRPISGYGKVTVKTPDTLDVDITYPSLGNIKAQGQITMDSPTQFKFDATTKGAGNFTGRLTGTLQRQE

Experiments:
[1] = target: BCL2; design: method as in PMID 27805565; conditions: read-out: dissociation constant (Kd); cited from earlier work
[2] = In vitro chromophore titration with DFHBI (fluorescence, single-binding site isotherm fit)
Protocol: Fluorescence endpoints were measured on a Synergy Neo2 hybrid multi-mode reader (BioTek) in flat bottom, black polystyrene, non-binding surface 96-well microplates (Corning 3650). In measuring chromophore-binding affinities (Fig. 1d, e), mFAP2, mFAP2a, and mFAP2b, and mFAP10 were produced by large-scale protein purification and SEC purification. Proteins were aliquoted in eight technical replicates in 200 μL final volumes to 20.0 nM final concentration in ten serial dilutions ( 10 dilution factor) of DFHBI starting from 31.6 μM DFHBI or 31.6 μM DFHBI-1T final concentrations, including an eleventh condition without chromophore. Fluorescence was excited at λex = 468 nm and fluorescence emission measured at λem = 530 nm. Background fluorescence endpoints of wells with identical chromophore concentrations but purified protein replaced with an identical volume of high-salt Tev cleavage buffer were measured, and fluorescence endpoints subtracted from those measured with protein. Background-subtracted data were averaged and the means normalized from 0 to 1 and fit to a single-binding site isotherm function using non-linear least squares fitting to obtain a fitted Kd value (Table 1), and the fit scaled to the maximum mean value (Fig. 1d, e).

[3] = Photophysical characterization: absorbance, excitation/emission spectra, extinction coefficients, quantum yields; assay type: physicochemical
Protocol: Protein preparation: mFAP2a, mFAP2b, and mFAP10 were produced by large-scale protein purification and SEC purification, and dialyzed overnight into DPBS that was adjusted to pH 7.40 using NaOH.
Chromophore preparation: DFHBI (Lucerna) and DFHBI-1T (Lucerna) were dissolved to 20.0 mM in 100% DMSO, and diluted in DPBS (pH 7.40) to measure absorbances on a Jasco V-750 spectrophotometer at peak absorbance wavelengths (417 nm for DFHBI and 422 nm for DFHBI-1T). Following background subtraction of identical buffer without chromophore, Beer’s Law was used to calculate the molar chromophore concentrations of the stock solutions using previously reported extinction coefficients.
Preparation of protein–chromophore complexes: For quantum yield measurements, 1.00 μM, 836 nM, or 919 nM chromophore solutions in DPBS (pH 7.40) at 4.00 mL final volumes were prepared for the following eight conditions: DFHBI only, DFHBI-1T only, 43.5 µM 6xHis-mFAP10 with DFHBI, 43.5 µM 6xHis-mFAP10 with DFHBI-1T, 134 μM 6xHis-mFAP2a with DFHBI, 134 μM 6xHis-mFAP2a with DFHBI-1T, 206 μM 6xHis-mFAP2b with DFHBI, and 206 μM 6xHis-mFAP2b with DFHBI-1T.
Extinction coefficients: Absorbance spectra of protein–chromophore complexes were first measured with a Thermo Scientific BioMate 3S UV–Vis Spectrophotometer (1 nm interval, 800 nm min^−1). The extinction coefficients were then calculated using Beer’s Law:12 A=ε⋅b⋅c, where A is peak absorbance, ε is extinction coefficient, b is path length (1 cm), and c is concentration (1.00 μM, 836 nM, or 919 nM).
Relative quantum yield: A Perkin-Elmer LS-B Luminescence Spectrophotometer (10 nm bandwidth, 1 nm interval, 100 nm min^−1) was used. The fluorescence emission spectra of the protein–chromophore complexes (in DPBS, pH 7.40) and reference dye Acridine Yellow G (in methanol) were first obtained, and the quantum yield was then calculated using the equation[53]:13 ϕc=ϕr⋅1−10^−Ar(λex)/1−10^−Ac(λex)⋅∫Fc(λ)⋅dλ/∫Fr(λ)⋅dλ⋅nc2/nr2, where ϕ is quantum yield, A(λex) is absorbance at the excitation wavelength λex ( λex = 440 nm), F is fluorescence emission, n is refractive index of the solution (1.3350 for DPBS at pH 7.40 and 1.3284 for methanol), and the subscripts “c” and “r” refer to the protein–chromophore complex measured and the reference dye, respectively. […]
Absolute quantum yield: An integrating sphere instrument (Hamamatsu C9920-12) (6 nm excitation bandwidth, 1 nm interval) and a high-sensitivity photonic multi-channel analyzer (Hamamatsu C10027-01) were used to measure a light emission spectrum. Absolute quantum yields were measured for solutions of protein–chromophore complexes in DPBS (pH 7.40) in which ≥95% of the total chromophore was occupying the protein-binding pocket (Table 1). […]

[4] = Fluorescence intensity assays of mFAP variants; assay type: biochemical; conditions: low-DFHBI concentration (555 nM)
Protocol: To measure fluorescence intensities of the phenolate form of chromophores, fluorescence was measured on a Synergy Neo2 hybrid multi-mode reader (BioTek) in flat bottom, black polystyrene, non-binding surface 96-well microplates (Corning 3650). Fluorescence intensity was measured in triplicate by exciting at λex = 484 nm and measuring fluorescence emission at λem = 505 nm (or λem = 511 nm for clones harboring the W27 mutation) (Supplementary Fig. 1g, h). The W27 mutation redshifts the peak emission wavelength from λem = ~505 nm to λem = ~511 nm, presumably due to the W27 indole ring donating a hydrogen bond to the imidazolinone moiety of the deprotonated state of DFHBI, which stabilizes the chromophore conjugated π–electron system in the excited state causing the redshift in emission. Fifteen microliters of small-scale purified protein[49] was combined with 185 μL of Na2HPO4-citrate (pH 7.36) buffer supplemented with 150 mM NaCl and 108 nM DFHBI for a final concentration of 100 nM DFHBI. In measuring the excitation spectra from λem = 525 nm of each clone in triplicate (Supplementary Fig. 1i), 30.0 μL of large-scale purified protein[49] was combined with 170 μL of 25.0 mM Tris (pH 8.00) supplemented with 100 mM NaCl and 914 nM DFHBI for a final concentration of 7.77 μM protein and 777 nM DFHBI. In measuring the fluorescence intensity at λex = 484 nm and λem = 509 nm of each clone in triplicate (Supplementary Fig. 1j), 30.0 μL of large-scale purified protein[49] was combined with 170 μL of 25.0 mM Tris (pH 8.00) supplemented with 100 mM NaCl and 653 nM DFHBI for a final concentration of 5.55 μM protein and 555 nM DFHBI. In measuring fluorescence intensity at λex = 468 nm and λem = 530 nm of each clone in technical triplicate (Supplementary Fig. 1k), 24.0 μL of 35.4 µM large-scale purified protein[49] was combined with 1.00 μL of 1.25 µM DFHBI or 1.00 μL of 1.25 µM DFHBI-1T (Lucerna) (from […] chromophore stock solutions dissolved in 0.5% DMSO and 99.5% high-salt Tev cleavage buffer [25.0 mM Tris, 100 mM NaCl, pH 8.00]) for final concentrations of 34.0 μM protein and 50.0 nM chromophore. The mFAP9–DFHBI complex had ~1.1-fold the fluorescence intensity of the mFAP10–DFHBI complex, and the mFAP9–DFHBI-1T complex had ~0.75-fold the fluorescence intensity of the mFAP10–DFHBI-1T complex (Supplementary Fig. 1k). In collecting fluorescence emission spectra by exciting fluorescence at λex = 484 nm and collecting fluorescence emission at λem = 495–650 nm (Supplementary Fig. 6b), and in measuring fluorescence endpoints in techincal triplicate at unique peak excitation and emission wavelengths (Supplementary Fig. 6c), 195 μL of large-scale purified protein[49] was combined with 5.00 μL of 25 mM Tris (pH 8.00) supplemented with 100 mM NaCl and 40.0 μM DFHBI for a final concentration of 10.0 μM protein and 1.00 μM DFHBI.
In measuring fluorescence intensity of small-scale purified proteins[49] (Supplementary Table 1), wells were excited at λex = 488 nm for DFHBI and DFHBI-1T and λex = 505 nm for DFHO, and fluorescence emission measured at λem = 510 nm for DFHBI and DFHBI-1T and λem = 545 nm for DFHO. […]

[5] = with DFHBI; cited from earlier work
[6] = design: method as in PMID 30209393; conditions: read-out: Kd for the phenolate form of DFHBI; cited from earlier work

Row | Molecule | Kd [1] | higher affinity for DFHBI than DFHBI-1T [2] | brighter fluorescence with DFHBI-1T than DFHBI [3] | brighter fluorescence than mFAP2b [4] | absolute fluorescence quantum yield (ϕc) [5] | Kd [6]
1 | B1 | 0.8 ± 0.5 nM | – | – | – | – | –
2 | B2 | 320 ± 40 nM | – | – | – | – | –
3 | B3 | – | ~ 39 fold | ~ 2.5 fold | ~ 1.3 fold | – | –
4 | B4 | – | ~ 2.6 fold | ~ 12 fold | – | – | –
5 | B5 | – | ~ 30 fold | ~ 2.7 fold | – | 2.1% | ~180 nM

Source: publication PMC7870846, “Incorporation of sensing modalities into de novo designed fluorescence-activating proteins” (Nature Communications, 2021)
